The text below walks through data of US20140113322A1, “SUPRAMOLECULAR NANOBEACON IMAGING AGENTS AS PROTEASE SENSORS” (priority 2012, published 2014).

SMILES strings stand for the structures.

This data set has as its system MCF-7 cells.

On to `COc1cc(N=Nc2ccc(C)cc2[N+](=O)[O-])c(C)cc1N=Nc1ccc(N(C)CCCC(=O)NCCCC[C@H](NC(=O)CNC(=O)[C@H](CC(C)C)NC(=O)[C@H](Cc2ccccc2)NC(=O)CNC(=O)c2ccc3c(c2)C(=O)OC32c3ccc(O)cc3Oc3cc(O)ccc32)C(=O)NCC(=O)N[C@@H](CCCNC(=N)N)C(=O)N[C@@H](CCCCN)C(=O)N[C@@H](CCCCN)C(=O)N[C@@H](CCCNC(=N)N)C(=O)N[C@@H](CCCNC(=N)N)C(=O)N[C@@H](CCC(N)=O)C(=O)N[C@@H](CCCNC(=N)N)C(=O)N[C@@H](CCCNC(=N)N)C(=O)N[C@@H](CCCNC(=N)N)C(=O)N2CCC[C@H]2C(=O)N2CCC[C@H]2C(=O)N[C@@H](CCC(N)=O)C(N)=O)cc1` [TFB], for which the “toxicity to MCF-7 cells (cell viability)” value is recorded as “little toxicity”.
